Data on two molecules can be found in US20170073395A1 (Pfizer, published 2017).

In assay [1] the target is T1, Human A33 ectodomain protein (human, UniProt Q99795 22-235).
T1 construct: extracellular domain
T1 sequence (looked up): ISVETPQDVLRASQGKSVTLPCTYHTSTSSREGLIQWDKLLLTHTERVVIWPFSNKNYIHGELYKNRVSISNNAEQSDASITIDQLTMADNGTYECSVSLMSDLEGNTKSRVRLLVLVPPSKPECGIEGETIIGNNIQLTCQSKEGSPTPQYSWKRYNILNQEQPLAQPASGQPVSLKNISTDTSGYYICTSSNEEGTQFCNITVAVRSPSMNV
The assay can be described thus: HTRF epitope competition, IgG titrated; competitor parental IgG (Par-A33). For orientation: Time-resolved FRET reads energy transfer from a long-lived donor to a nearby acceptor.

In assay [2] the target is T1, Human A33 ectodomain protein. As to the kind of experiment: Biacore T-200 SPR, IgG immobilised (~100 RU), purified target protein injected. As to the method:
Biacore analysis was performed using the T-200 biosensor, series S CM5 chips, an amine-coupling kit, 10 mM sodium acetate immobilization buffer at pH 5.0, 10×HBS-P running buffer and NaOH for regeneration (GE Healthcare). Kinetic assay conditions were established to minimize the influence of mass transfer, avidity and rebinding events. A predefined ligand immobilization program was set up to immobilize approximately 100 Response Units (RU) of IgG on the chip. Purified target proteins were diluted in HBS-P running buffer to a range of final concentrations and injected at 50 μl/min for 3 mins. Dissociation was allowed to proceed for 10 min followed by a 5 sec pulse of 20 mM NaOH for regeneration of the chip surface. All sensorgrams were analyzed using the Biacore T-200 evaluation software.
Background: Surface plasmon resonance follows binding to a sensor surface in real time, without labels.

For the next assay, the target named is T2, mICAM2 (mouse, UniProt P35330 23-222, limits assumed).
T2 construct: Non-target panel protein
T2 sequence (looked up): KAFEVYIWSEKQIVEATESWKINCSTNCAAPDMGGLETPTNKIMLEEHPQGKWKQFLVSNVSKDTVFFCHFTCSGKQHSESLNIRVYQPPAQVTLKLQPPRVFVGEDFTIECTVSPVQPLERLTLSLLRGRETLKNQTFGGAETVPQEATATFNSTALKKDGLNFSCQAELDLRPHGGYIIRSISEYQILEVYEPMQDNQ
The assay can be described thus: Biacore specificity assay: IgG immobilised (about 300 RU), antigen injected at 500 nM. As to the method:
(§1) Biacore specificity analyses were performed using the T-200 biosensor, series S CM5 chips, an amine-coupling kit, 10 mM sodium acetate immobilization buffer at pH 5.0, 10× HBS-P running buffer and NaOH for regeneration (GE Healthcare). A predefined ligand (IgG) immobilization program was set up to immobilize approximately 300 Response Units (RU) on the flow cell for each IgG to be tested. For Anti-RAGE and anti-A33, a panel of fully-purified recombinant target and non-target antigens were diluted in HBS-P running buffer to a final concentration of 500 nM. Four groups of antigens were examined, including: cell membrane proteins (mTRKB, hTRKB, mEGFR, hEGFR, hFceR1, hIL-21R, mICAM1, mICAM2, hICAM1, hCD33, hLAMP-1, hLOX-1, and), soluble signaling molecules (mTNFa, hVEGF, hCXCL13) and albumins (BSA, HSA and MSA). These proteins were injected at 50 μl/min for 3 min, followed by a 5 sec pulse of 20 mM NaOH for regeneration of the chip surface. For pTau, a series of pTau-derived phosphorylated and non-phosphorylated peptides were flowed, as in Shih et al.³. All sensorgrams were analyzed using the Biacore T-200 evaluation software.

A further assay has as its target T3, hICAM1 (human, UniProt P05362 28-480, limits assumed).
T3 construct: Non-target panel protein
The assay is described as above. The protocol: as §1

In the next assay the target is T4, hLAMP-1 (human, UniProt P11279 29-382, limits assumed).
T4 construct: Non-target panel protein
T4 sequence (looked up): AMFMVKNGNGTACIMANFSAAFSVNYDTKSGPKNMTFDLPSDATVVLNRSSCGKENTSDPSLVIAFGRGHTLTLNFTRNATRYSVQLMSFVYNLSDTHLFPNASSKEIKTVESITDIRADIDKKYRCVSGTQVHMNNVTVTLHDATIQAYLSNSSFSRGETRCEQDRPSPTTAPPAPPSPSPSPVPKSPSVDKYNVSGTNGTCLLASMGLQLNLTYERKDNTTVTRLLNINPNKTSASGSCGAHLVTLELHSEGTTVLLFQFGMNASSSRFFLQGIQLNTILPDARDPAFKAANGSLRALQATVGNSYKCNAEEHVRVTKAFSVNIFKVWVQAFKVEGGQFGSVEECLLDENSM
Described as above. As to the method:
as §1

For a further assay, the target named is T5, mEGFR (mouse, UniProt Q01279 25-647, limits assumed).
T5 construct: Non-target panel protein
The description is as above. As to the method:
as §1

The target of the next assay is T6, hCD33 (human, UniProt P20138 18-259, limits assumed).
T6 construct: Non-target panel protein
The description is as above. The protocol: as §1

The target in a further assay is T7, hTRKB (human, UniProt Q16620 32-430, limits assumed).
T7 construct: Non-target panel protein
The description is as above. The protocol: as §1

For another assay, the target named is T8, mICAM1 (mouse, UniProt P13597 28-485, limits assumed).
T8 construct: Non-target panel protein
Described as above. The protocol:
as §1

In the next assay the target is T9, mTRKB (mouse, UniProt P15209 32-429, limits assumed).
T9 construct: Non-target panel protein
The assay is described as above. As to the method: as §1

In a further assay the target is T10, hVEGF (human, UniProt P15692-4 27-191, limits assumed).
T10 construct: Non-target panel protein
Described as above. The protocol: as §1

For the next assay, the target named is hLOX-1 (human, UniProt P78380 61-273). Described as above. As to the method: as §1
In a further assay the target is T11, mTNFa (mouse, UniProt P06804 80-235).
T11 construct: Non-target panel protein
T11 sequence (looked up): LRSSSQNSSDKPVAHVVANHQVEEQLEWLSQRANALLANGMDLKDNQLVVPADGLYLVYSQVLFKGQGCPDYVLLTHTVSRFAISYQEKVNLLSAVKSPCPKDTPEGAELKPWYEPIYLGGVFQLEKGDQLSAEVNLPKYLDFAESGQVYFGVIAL
Described as above. As to the method:
as §1

The target in the next assay is T12, hFceR1 (human, UniProt P12319 26-205).
T12 construct: Non-target panel protein
T12 sequence (alpha): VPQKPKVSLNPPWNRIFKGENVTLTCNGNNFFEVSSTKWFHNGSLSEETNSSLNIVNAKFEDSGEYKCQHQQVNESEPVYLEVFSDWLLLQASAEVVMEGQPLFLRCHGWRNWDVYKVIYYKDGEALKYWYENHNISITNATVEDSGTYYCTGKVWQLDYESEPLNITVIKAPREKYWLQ
The description is as above. The protocol:
as §1

The target in the next assay is T13, hIL-21R (human, UniProt Q9HBE5 20-232, limits assumed).
T13 construct: Non-target panel protein
The description is as above. As to the method: as §1

The next assay addresses T14, hEGFR (human, UniProt P00533 25-645, limits assumed).
T14 construct: Non-target panel protein
The assay is described as above. The protocol: as §1

The target of another assay is T15, hCXCL13 (human, UniProt O43927 23-109).
T15 construct: Non-target panel protein
T15 sequence (looked up): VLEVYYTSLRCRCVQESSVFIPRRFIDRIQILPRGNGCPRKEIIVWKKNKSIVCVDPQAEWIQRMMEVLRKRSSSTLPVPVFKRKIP
The assay is described as above. The protocol:
as §1

The next assay deals with T16, hRAGE (human, UniProt Q15109 24-344, limits assumed).
T16 construct: also called human RAGE
The assay can be described thus: Biacore specificity assay: IgG immobilised (about 300 RU), antigen h-RAGE-fc injected at 500 nM. The protocol: as §1

A further assay addresses T17, mRAGE (mouse, UniProt Q62151 24-342, limits assumed).
T17 construct: also called mouse RAGE
As to the kind of experiment: Biacore specificity assay: IgG immobilised (about 300 RU), antigen m-RAGE-fc injected at 500 nM. The protocol: as §1

T10 sequence (P15692 other isoform, or with tags, fused parts or gaps limits assumed): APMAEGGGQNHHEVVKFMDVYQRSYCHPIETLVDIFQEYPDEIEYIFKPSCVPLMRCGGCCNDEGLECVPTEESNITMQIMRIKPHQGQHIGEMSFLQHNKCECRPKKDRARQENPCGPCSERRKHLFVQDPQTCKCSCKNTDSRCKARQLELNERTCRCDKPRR
T8 sequence (P13597 28-485 limits assumed): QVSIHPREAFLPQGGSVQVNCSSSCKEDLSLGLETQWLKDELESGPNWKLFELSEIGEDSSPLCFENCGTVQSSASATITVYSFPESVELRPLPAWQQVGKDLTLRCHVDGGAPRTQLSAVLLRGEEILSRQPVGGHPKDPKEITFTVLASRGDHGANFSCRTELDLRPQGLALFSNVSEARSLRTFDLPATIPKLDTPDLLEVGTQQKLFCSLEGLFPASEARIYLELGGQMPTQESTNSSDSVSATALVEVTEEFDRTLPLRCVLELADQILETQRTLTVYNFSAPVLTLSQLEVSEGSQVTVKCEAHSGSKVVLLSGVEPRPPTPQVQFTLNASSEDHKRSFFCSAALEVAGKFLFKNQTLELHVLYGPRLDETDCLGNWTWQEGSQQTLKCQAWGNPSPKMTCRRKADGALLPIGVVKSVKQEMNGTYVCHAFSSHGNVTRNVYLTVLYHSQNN
T6 sequence (P20138 18-259 limits assumed): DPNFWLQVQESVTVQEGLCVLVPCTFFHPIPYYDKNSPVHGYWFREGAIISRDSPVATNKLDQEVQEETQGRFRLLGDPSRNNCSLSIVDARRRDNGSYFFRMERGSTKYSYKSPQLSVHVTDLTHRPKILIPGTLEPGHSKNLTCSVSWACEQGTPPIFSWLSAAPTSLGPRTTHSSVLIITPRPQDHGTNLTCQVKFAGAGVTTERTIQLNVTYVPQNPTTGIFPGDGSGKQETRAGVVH
T9 sequence (P15209 32-429 limits assumed): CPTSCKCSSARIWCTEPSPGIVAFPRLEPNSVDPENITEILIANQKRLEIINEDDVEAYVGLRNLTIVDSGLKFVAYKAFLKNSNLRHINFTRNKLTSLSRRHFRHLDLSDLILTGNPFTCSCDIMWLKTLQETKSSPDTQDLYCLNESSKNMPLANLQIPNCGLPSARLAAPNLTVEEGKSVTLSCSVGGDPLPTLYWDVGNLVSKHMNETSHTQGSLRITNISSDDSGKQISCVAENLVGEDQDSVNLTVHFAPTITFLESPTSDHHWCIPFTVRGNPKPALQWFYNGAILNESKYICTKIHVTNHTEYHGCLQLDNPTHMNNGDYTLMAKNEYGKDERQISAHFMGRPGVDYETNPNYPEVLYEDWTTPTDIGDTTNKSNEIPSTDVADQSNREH
T3 sequence (P05362 28-480 limits assumed): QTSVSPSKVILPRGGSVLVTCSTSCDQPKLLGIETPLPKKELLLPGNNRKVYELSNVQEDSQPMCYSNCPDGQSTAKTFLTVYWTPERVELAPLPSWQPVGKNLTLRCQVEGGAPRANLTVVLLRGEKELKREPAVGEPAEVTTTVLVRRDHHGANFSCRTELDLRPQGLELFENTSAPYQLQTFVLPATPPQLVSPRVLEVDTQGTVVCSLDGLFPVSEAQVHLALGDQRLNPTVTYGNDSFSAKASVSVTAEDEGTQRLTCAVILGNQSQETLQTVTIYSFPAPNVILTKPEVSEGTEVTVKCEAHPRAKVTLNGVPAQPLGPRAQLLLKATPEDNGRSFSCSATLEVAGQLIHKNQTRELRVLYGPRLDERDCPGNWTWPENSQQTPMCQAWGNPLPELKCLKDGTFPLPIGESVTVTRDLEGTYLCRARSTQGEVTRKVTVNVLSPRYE
T7 sequence (Q16620 32-430 limits assumed): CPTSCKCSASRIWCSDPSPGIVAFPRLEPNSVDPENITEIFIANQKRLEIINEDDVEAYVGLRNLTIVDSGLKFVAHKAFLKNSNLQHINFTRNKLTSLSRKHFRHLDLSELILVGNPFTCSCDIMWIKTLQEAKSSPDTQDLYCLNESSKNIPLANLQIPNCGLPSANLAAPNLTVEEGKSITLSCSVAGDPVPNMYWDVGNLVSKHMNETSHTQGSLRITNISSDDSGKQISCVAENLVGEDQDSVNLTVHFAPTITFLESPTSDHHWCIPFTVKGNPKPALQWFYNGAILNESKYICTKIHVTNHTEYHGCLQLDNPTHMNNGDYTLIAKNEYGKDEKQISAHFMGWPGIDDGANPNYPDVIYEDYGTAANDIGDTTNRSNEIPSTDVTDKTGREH
T13 sequence (Q9HBE5 20-232 limits assumed): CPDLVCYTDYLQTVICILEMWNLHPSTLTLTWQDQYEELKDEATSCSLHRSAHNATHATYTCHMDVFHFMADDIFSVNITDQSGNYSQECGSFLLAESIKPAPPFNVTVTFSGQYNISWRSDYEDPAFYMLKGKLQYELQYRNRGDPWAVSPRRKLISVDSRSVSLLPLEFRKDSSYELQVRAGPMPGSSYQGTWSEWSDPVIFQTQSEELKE
T17 sequence (Q62151 24-342 limits assumed): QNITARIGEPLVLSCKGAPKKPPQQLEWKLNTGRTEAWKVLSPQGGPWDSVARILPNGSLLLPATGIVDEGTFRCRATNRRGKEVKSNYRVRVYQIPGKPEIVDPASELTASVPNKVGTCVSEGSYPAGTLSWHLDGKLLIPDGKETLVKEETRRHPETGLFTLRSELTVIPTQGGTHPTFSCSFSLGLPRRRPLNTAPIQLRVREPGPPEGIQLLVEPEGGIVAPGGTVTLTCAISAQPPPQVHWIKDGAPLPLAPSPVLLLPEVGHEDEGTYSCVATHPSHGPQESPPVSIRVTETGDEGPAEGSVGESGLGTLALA
T16 sequence (Q15109 24-344 limits assumed): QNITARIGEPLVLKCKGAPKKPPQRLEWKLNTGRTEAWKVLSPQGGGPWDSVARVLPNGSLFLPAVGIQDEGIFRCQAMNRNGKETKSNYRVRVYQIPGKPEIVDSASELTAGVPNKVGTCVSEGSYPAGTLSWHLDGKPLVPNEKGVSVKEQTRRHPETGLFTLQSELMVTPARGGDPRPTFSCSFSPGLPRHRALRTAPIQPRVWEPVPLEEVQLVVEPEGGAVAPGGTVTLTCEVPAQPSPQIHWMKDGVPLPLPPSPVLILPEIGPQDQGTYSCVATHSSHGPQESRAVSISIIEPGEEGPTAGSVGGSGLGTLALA

B1: Chim-A33 IgG (rabbit anti-A33 parental v-domains on the human IgG1 backbone) (antibody, V domains shown)
VH: QEQLMESGGGLVTLGGSLKLSCKASGIDFSHYGISWVRQAPGKGLEWIAYIYPNYGSVDYASWVNGRFTISLDNAQNTVFLQMISLTAADTATYFCARDRGYYSGSRGTRLDLWGQGTLVTISS
VL: ELVMTQTPPSLSASVGETVRIRCLASEFLFNGVSWYQQKPGKPPKFLISGASNLESGVPPRFSGSGSGTDYTLTIGGVQAEDVATYYCLGGYSGSSGLTFGAGTNVEIK
notes: also called Par-A33; A33 Rabbit
On to B1, for which the IC50 in assay [1] was 2.9 nM. The molecule also yielded a Kd in [2] of 2.1 nM. Also, the binding result with mICAM2, with hICAM1, with hLAMP-1, in the assay with mEGFR, with hCD33 and with hTRKB was “no binding (tested: 500 nM)” in each case. Also, the binding result in the assay with mICAM1, with mTRKB, in the assay with hVEGF, with hLOX-1, with mTNFa and in the assay with hFceR1 was “no binding (tested: 500 nM)” throughout. Moreover, the binding result with hIL-21R, with hEGFR and in the assay with hCXCL13 was “no binding (tested: 500 nM)” each time.

B2: Par-RAGE IgG (rat anti-RAGE XT-M4 parental v-domains on the human IgG1 backbone) (antibody, V domains shown)
VH: EVQLVESGGGLVQPGRSLKLSCVVSGFTFNNYWMTWIRQTPGKGLEWVASIDNSGDNTYYPDSVKDRFTISRDNAKSTLYLQMNSLRSEDTATYYCTRGGDITTGFDYWGQGVMVTVSS
VL: DIQMTQSPSSMSVSLGDTITITCRASQDVGIYVNWFQQKPGKSPRRMIYRATNLADGVPSRFSGSRSGSIYSLTISSLESEDVADYHCLEFDEHPLTFGSGTKVEIK
notes: Human IgG1 backbone; also called XTM4 RAGE
On to B2, for which the binding result with hRAGE is listed as “binds”; with mICAM2, “no binding (tested: 500 nM)”; with hICAM1, “no binding (tested: 500 nM)”; in the assay with hLAMP-1, “no binding (tested: 500 nM)”; with mEGFR it was “no binding (tested: 500 nM)”; with hCD33, “no binding (tested: 500 nM)”. In addition, the binding result with hTRKB, with mICAM1, in the assay with mTRKB, with hVEGF, in the assay with hLOX-1 and with mTNFa was “no binding (tested: 500 nM)” in each case. In addition, the binding result is “no binding (tested: 500 nM)” in the assay with hFceR1; “no binding (tested: 500 nM)” in the assay with hIL-21R; “no binding (tested: 500 nM)” in the assay with hEGFR; “no binding (tested: 500 nM)” with hCXCL13; “binds” with mRAGE.

Broadly, the IC50 is the concentration that inhibits the measured activity by half. By Kd is commonly meant the equilibrium constant for the complex coming apart.
